Results published in patent publication US10227575B2, “Multi-domain enzymes having cutinase activity, compositions comprising same and uses thereof” (OZYMES, priority 2015, dated 2019).

Tests used:
[1] = Circular dichroism spectroscopy, melting temperature and refolding; type: physicochemical; conditions: for melting temperature (Tm): unfolding; for Tm (° C.): estimated using CD-spectroscopy
Description: CD spectra were recorded using a Jasco™ J-815 spectrometer operating with the Spectra™ Manager software. Temperature was controlled using a Jasco™ PFD-452S peltier unit. Previously purified protein solutions were adjusted to 0.15 mg/mL (if quantities allowed for) and CD spectra were recorded between 190 and 250 nm using a Quartz cuvette (ID=0.1 cm). Blanks containing buffer only were prepared and used as baseline. Temperature dependent protein unfolding was monitored at 222 nm with thermo profiles ranging from 20 up to 90° C. (2° C. min-1). Samples were kept for 5 min at the respective maximum temperature and protein refolding was monitored using the same conditions as above reversing the thermo profiles. Thermodynamic parameters (Tm, ΔH, ΔS, ΔG) for the folding/unfolding process, if applicable, were calculated using the Spectra™ Manager software.

[2] = Polymer binding test, cellulose
Description: Different polymers (cellulose, PLA, PCL, and PHB) were tested to evaluate the ability of KrCUT and KrCUT189 to bind these materials. Binding assays for PCL and PLA could not be performed since both polymers were degraded by the enzymes.

[3] = Hydrolysis of cutin, GC-MS of released monomers; type: biochemical, Apple (Golden Delicious)
Description: Apple (Golden Delicious) cutin was used as substrate. The outer layer of the fruit was peeled by hand and cutin preparation carried out as described by Gerard et al. (1993) with minor modifications. Discs of apple peels were incubated at 50° C. in oxalate buffer [(oxalic acid (4 g/L)/ammonium oxalate (16 g/L)] for 16 h and then collected and washed several times with deionized water. The sample was treated with 0.5% Novozymes Aspergillus niger pectinase (Sigma P2736) in 100 mM phosphate citrate buffer pH 5.8 for 16 h. The cutin sheets were washed with ethanol, followed by several washes with chloroform, and then incubated in chloroform at 45° C. for 16 h, and finally dried to constant weight. The cutin was ground in a Cyclone sample Mill (UDY Corporation, Fort Collings, Colo., USA).
A typical reaction mixture (2 mL) contained 20 mg cutin and an appropriate amount of cutinase in 25 mM sodium phosphate buffer, pH 8.0. The mixture was incubated in a water bath at 37° C. with gentle shaking for 16 h. Assays were conducted in duplicate. At the end of the reaction, the remaining cutin was removed by centrifugation (10 min, 5000 rpm). The resulting solution was acidified with hydrochloric acid and cutin monomers extracted with chloroform/methanol, according to Bligh and Dyer (1959). The organic phase was removed by evaporation under an air stream and the dried residue dissolved in 1 mL chloroform/methanol (85:15) and used for further derivatization. Trimethylsilylation of cutin monomers was performed with BSTFA [N, O-bis(trimethylsilyl) trifluoroactamide] and TMCS (trimethylchlorosilane) provided by the supplier in the ratio 99:1 (Supelco, Bellefonte, USA) at 70° C. for 3 h, and the composition of the mixture determined by GC-MS.
Cutin monomers were identified by GC-MS on an Agilent 6890 gas chromatography system coupled to a 5973 quadrupole mass spectrometer. 1 μL was injected under splitless condition on a 50 m×0.20 mm×0.33 μm DB-5MS capillary column (Agilent). The oven temperature program was 70° C. (for 1.39 min) to 136° C. at 64° C./min and to 290° C. at 2.5° C./min (for 55 min). Helium was used as carrier gas. The temperature at the injection port was 250° C. The detector was run in El mode at 70 eV. Masses were scanned between 50 and 650 amu.
Components were identified by comparison of the MS spectra of their trimethylsilyl (TMSi) derivatives, as methyl ester TMSi ether or as TMSi ester TMSi ether, with published spectra (Kallio et al., 2006; Philipps et al., 2002).
To measure cutinase activity, assays of cutin hydrolysis were performed as described in Example 1, section 1.7 at two different enzyme concentrations. Characteristic cutin components, C16 and C18 hydroxyl fatty acids, were identified by GC-MS analysis.

[4] = Degradation of poly(1,3-propylene adipate); conditions: 2.5 μM, after 24 hours
[5] = Thermostability of purified enzymes; type: physicochemical
Description: Enzyme thermostability was studied over a temperature range of 50-95° C. using the purified enzyme preparations. Aliquots were incubated at the desired temperature for 5, 10, 30, 60, and 120 minutes, chilled on ice, and assayed for remaining activity towards p-NP-palmitate (pNPP) at room temperature.

[6] = Stability of KrCUT in stabilisation buffer; type: physicochemical
Description: For stability testing, culture medium showing KrCUT activity, and containing 100 mg total protein was used. Stabilisation buffer composed of sodium gluconate 1-5%, sodium carbonate 1-5%, sodium citrate 1-5% and propylene glycol 1-5% was prepared; 50 mL enzyme solution was added to 200 mL of buffer and stored at room temperature, after mixing. Samples were taken at defined time periods and the enzymatic activity was measured using p-nitrophenyl dodecanoate as substrate.

[7] = Esterase assay, specific activity of KrCUT versus YebF-KrCUT; type: biochemical; conditions: pNP-palmitate as substrate
Description: Esterase activity was determined by monitoring the formation of pNP at 410 nm from various pNP-esters using a Beckman UV spectrophotometer (model DU 640) (21). Substrates were dissolved in isopropanol and were added to 50 mM sodium phosphate buffer pH 8.0 to give 10% (v/v) total isopropanol concentration in a 1 mL reaction volume. pNP-butyrate was used at a final concentration of 1.2 mM. For pNP-caprylate, myristate and palmitate, the final concentration ranged from 0.1 to 0.5 mM. The reaction (1 mL) was started by adding an appropriate amount of enzyme. One enzyme unit (U) is defined as the amount of enzyme that produced 1 μmol of product (pNP) per min; specific activity is expressed as U/mg protein. A molar extinction coefficient of 15 mM^−1 cm^−1 for pNP is used for calculating enzyme activity.
The presence of YebF appeared to greatly decrease the activity of the fusion proteins. […] The results are shown in FIG. 6, in which fractions C1-C10 correspond to the first peak (KrCUT) and fractions D9-D11 correspond to the second peak (YebF-KrCUT).

B1: KrCUT: mature Kineococcus radiotolerans cutinase, amino acids 34-294 of SEQ ID NO: 1; SEQ ID NO: 6 (protein)
chain: ATCSDVDVVFARGTGETPGLGVVGGPFVRSLTGELSDRTVTSHAVDYAASSSQASAGPGATAMSAHVREVAAACPSTRFVLGGYSQGATVTDIALGIRTGTTTGTPVPAELAGRVAAVVVFGNPLGLSGRTIATASSTYGPKSKDYCNSSDSVCGSAPKTGTGGHLSYASNGSTTDGARFAAGLVRAAGTPTTPTPTPTPTPVPTTCVRDSTRDHVAADRAVSLYGRAYARGSRDSLGATSSYNVVSLQQVEGGWRLVTAC
modifications: Kineococcus radiotolerans; (1)..(261) KrCUT (lacking residues 1-33 of ssKrCUT)
refolding ([1]; CD at 222 nm): refolding to some extent
midpoint transition temperature of refolding ([1]; CD at 222 nm, high to low temperature): 42.7 °C
melting temperature (Tm) ([1]; CD at 222 nm): 50.7 °C
Tm (° C.) [1]: 51 ± 1 °C
binding to cellulose [2]: did not bind
10,16-dihydroxyhexadecanoic acid released, Area (%) ([3]; 20 Units cutinase): 39.25 ± 2.5%
18-hydroxy-octadeca-9,12-dienoic acid released, Area (%) ([3]; 20 Units cutinase): 18.0 ± 6.3%
9,10,18-trihydroxyoctadec-9 enoic acid released, Area (%) ([3]; 200 Units cutinase): 6.25 ± 0.40%
9,10,18-trihydroxyoctadec-10,12-dienoic acid released, Area (%) ([3]; 200 Units cutinase): 13.25 ± 0.40%
9,10,18-trihydroxyoctadecanoic acid released, Area (%) ([3]; 200 Units cutinase): 25.55 ± 0.10%
9,16-dihydroxyhexadecanoic acid released, Area (%) ([3]; 200 Units cutinase): 3.81 ± 0.62%
10,16-dihydroxyhexadecanoic acid released, Area (%) ([3]; 200 Units cutinase): 27.74 ± 0.41%
18-hydroxy-octadeca-9,12-dienoic acid released, Area (%) ([3]; 200 Units cutinase): 2.22 ± 0.13%
adipic acid found in the reaction mixture [4]: 12%
Relative activity remaining (thermostability) ([5]; 50° C., 5 min, time 0 = 100%): 61 ± 5%
Relative activity remaining (thermostability) ([5]; 50° C., 10 min, time 0 = 100%): 31 ± 4%
Relative activity remaining (thermostability) ([5]; 50° C., 30 min, time 0 = 100%): 12 ± 2%
Relative activity remaining (thermostability) ([5]; 50° C., 60 min, time 0 = 100%): 6%
Relative activity remaining (thermostability) ([5]; 55° C., 5 min, time 0 = 100%): 45 ± 4%
Relative activity remaining (thermostability) ([5]; 55° C., 10 min, time 0 = 100%): 26 ± 4%
Relative activity remaining (thermostability) ([5]; 55° C., 30 min, time 0 = 100%): 4%
Relative activity remaining (thermostability) ([5]; 60° C., 5 min, time 0 = 100%): 34 ± 4%
Relative activity remaining (thermostability) ([5]; 60° C., 10 min, time 0 = 100%): 12 ± 2%
Relative activity remaining (thermostability) ([5]; 65° C., 5 min, time 0 = 100%): 19 ± 2%
initial activity present ([6]; 9 months at room temperature): up to 65%
time after which activity loss could be observed ([6]; room temperature): 4 months
specific activity [7]: 162 U/mg

B2: Cf-TP: chimeric variant: catalytic and polymer binding domains of CfCUT with T/P-rich linker domain of KrCUT, SEQ ID NO: 29 (protein)
chain: APACPDVELVFARGTGEAAGLGIVGRPLERALAAELPGRTVVATAVDYAASSSQASAGPGSGDMVAKVRSRAAACPGTQFVLGGYSQGATVTDLALGIRTGVTAGTALPEDLAARVAAVVVYGNPLGLTRRTIAQAAPAFATRTVEYCNAGDPVCEPGGGRFTAHITYATNGTVLEGARFAAARVTAAGTPTTPTPTPTPTPVPTTCVTASSLQHVRDGRAYPLWMRTYARGSGDPLGVLSSRTVVSLQADGTDTWRKVAAC
modifications: YebF carrier; Cf-TP variant
refolding ([1]; CD at 222 nm): some refolding
melting temperature (Tm) ([1]; CD at 222 nm): 56.6 °C
Tm (° C.) [1]: 57 ± 1 °C
Relative activity remaining (thermostability) ([5]; 10 min): 43 ± 3%

B3: CfCUT: mature wild-type cutinase from Cellulomonas flavigena, SEQ ID NO: 28 (protein, listed as Cellulomonas flavigena)
chain: APACPDVELVFARGTGEAAGLGIVGRPLERALAAELPGRTVVATAVDYAASSSQASAGPGSGDMVAKVRSRAAACPGTQFVLGGYSQGATVTDLALGIRTGVTAGTALPEDLAARVAAVVVYGNPLGLTRRTIAQAAPAFATRTVEYCNAGDPVCEPGGGRFTAHITYATNGTVLEGARFAAARVTAPAPTPTPGPTGTPAPVPSAEPTPAPGDTCVTASSLQHVRDGRAYPLWMRTYARGSGDPLGVLSSRTVVSLQADGTDTWRKVAAC
refolding ([1]; CD at 222 nm): did not show any refolding
melting temperature (Tm) ([1]; CD at 222 nm): 65.2 °C
Tm (° C.) [1]: 65 ± 1 °C

B4: Am-Kr: chimeric variant: AmCUT fused to the T/P-rich linker domain and polymer binding domain of KrCUT, SEQ ID NO: 27 (protein)
chain: ACSDLEIVFARGSGEAPGLGITGTPLVSDVKSALSSASVSSYAVDYAASYDQTSAGPGATDMSNHIKSTAAACPDTKFAIGGYSQGASVTDIAIGIRTYLGTGQTIPTELAPRVVAVIAFGNPLGLYGQTIKTASPTYGPKSLEFCNRGDNVCGGTGTGPGYGHLSYARDGSVDQAAAFIAKQYNASAGTPTTPTPTPTPTPVPTTCVRDSTRDHVAADRAVSLYGRAYARGSRDSLGATSSYNVVSLQQVEGGWRLVTAC
modifications: YebF carrier; Am-Kr variant
refolding ([1]; CD at 222 nm): did not show any refolding
melting temperature (Tm) ([1]; CD at 222 nm): 55.0 °C
Tm (° C.) [1]: 55 ± 1 °C
